Molecular target: IL13Rα2 (human) (UniProt Q14627)
Test: cell-based or functional assay

UniProt Q14627, sequence (Q14627 27-380): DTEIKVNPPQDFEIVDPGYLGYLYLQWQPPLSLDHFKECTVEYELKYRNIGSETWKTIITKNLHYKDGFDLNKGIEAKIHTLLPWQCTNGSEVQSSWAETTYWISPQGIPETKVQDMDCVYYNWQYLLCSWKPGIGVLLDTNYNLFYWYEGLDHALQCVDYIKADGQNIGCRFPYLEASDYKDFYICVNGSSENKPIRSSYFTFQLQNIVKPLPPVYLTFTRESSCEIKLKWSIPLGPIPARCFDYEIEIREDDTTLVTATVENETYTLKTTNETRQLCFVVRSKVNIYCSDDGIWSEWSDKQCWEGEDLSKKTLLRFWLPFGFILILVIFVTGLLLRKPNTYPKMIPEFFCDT

- IL-13 concentration needed for the same CCL26 or periostin gene induction in IMR90 cells pre-stimulated with TNFα (elevated IL13Rα2) versus not pre-stimulated: 10 fold
Substance: IL-13 (from UniProt P35225 35-146) (ligand)
